# B1: CPEB3 Ribozyme (parent)
# chain: GGGGGCCACAGCAGAAGCGUUCACGUCGCGGCCCCUGUCAGAUUCUGGUGAAUCUGCGAAUUCUGCUGU
# Variants of: B1
# Assay: self-cleavage, relative activity (ratio to wild type); higher = more cleavage; co-transcriptional
row,Variant,self-cleavage
1,GGGGGCCACAGCAGAAGCGUUAACGUCGCGGCCCCUGUCAGAUUCUGGUGAAUCUGCGAAUUCUGCAGU,0.174
2,GGGGGCCACAGCAGAAGCGUUAACGUCGCGGCCCCUGUCAGAUUCUGGUGAAUCUGCGAAUUCUGCGGU,0.27
3,GGGGGCCACAGCAGAAGCGUUAACGUCGCGGCCCCUGUCAGAUUCUGGUGAAUCUGCGAAUUCUGCUGA,0.189
4,GGGGGCCACAGCAGAAGCGUUAACGUCGCGGCCCCUGUCAGAUUCUGGUGAAUCUGCGAAUUCUGCUGC,0.291
5,GGGGGCCACAGCAGAAGCGUUAACGUCGCGGCCCCUGUCAGAUUCUGGUGAAUCUGCGAAUUCUGCUGG,0.301
6,GGGGGCCACAGCAGAAGCGUUGACGUCGCGGCCCCUGUCAGAUUCUGGUGAAUCUGCGAAUUCUGCUGU,0.181
7,GGGGGCCACAGCAGAAGCGUUGGCGUCGCGGCCCCUGUCAGAUUCUGGUGAAUCUGCGAAUUCUGCUGU,0.217
8,GGGGGCCACAGCAGAAGCGUUGACGUCGCGGCCCCUGUCAGCUUCUGGUGAAUCUGCGAAUUCUGCUGU,0.23
9,GGGGGCCACAGCAGAAGCGUUGACGUCGCGGCCCCUGUCAGGUUCUGGUGAAUCUGCGAAUUCUGCUGU,0.132
10,GGGGGCCACAGCAGAAGCGUUGACGUCGCGGCCCCUGUCAGUUUCUGGUGAAUCUGCGAAUUCUGCUGU,0.194
11,GGGGGCCACAGCAGAAGCGUUGACGUCGCGGCCCCUGUCAGAUUCUGGUGCAUCUGCGAAUUCUGCUGU,0.151
12,GGGGGCCACAGCAGAAGCGUUGACGUCGCGGCCCCUGUCAGAUUCUGGUGGAUCUGCGAAUUCUGCUGU,0.131
13,GGGGGCCACAGCAGAAGCGUUGACGUCGCGGCCCCUGUCAGAUUCUGGUGUAUCUGCGAAUUCUGCUGU,0.163
14,GGGGGCCACAGCAGAAGCGUUGACGUCGCGGCCCCUGUCAGAUUCUGGUGACUCUGCGAAUUCUGCUGU,0.191
15,GGGGGCCACAGCAGAAGCGUUGACGUCGCGGCCCCUGUCAGAUUCUGGUGAGUCUGCGAAUUCUGCUGU,0.124
16,GGGGGCCACAGCAGAAGCGUUGACGUCGCGGCCCCUGUCAGAUUCUGGUGAUUCUGCGAAUUCUGCUGU,0.146
17,GGGGGCCACAGCAGAAGCGUUGACGUCGCGGCCCCUGUCAGAUUCUGGUGAAUCUGCGCAUUCUGCUGU,0.151
18,GGGGGCCACAGCAGAAGCGUUGACGUCGCGGCCCCUGUCAGAUUCUGGUGAAUCUGCGGAUUCUGCUGU,0.204
19,GGGGGCCACAGCAGAAGCGUUGACGUCGCGGCCCCUGUCAGAUUCUGGUGAAUCUGCGUAUUCUGCUGU,0.246
20,GGGGGCCACAGCAGAAGCGUUGACGUCGCGGCCCCUGUCAGAUUCUGGUGAAUCUGCGACUUCUGCUGU,0.133
21,GGGGGCCACAGCAGAAGCGUUGACGUCGCGGCCCCUGUCAGAUUCUGGUGAAUCUGCGAUUUCUGCUGU,0.0906
22,GGGGGCCACAGCAGAAGCGUUGAAGUCGCGGCCCCUGUCAGAUUCUGGUGAAUCUGCGAAUUCUGCUGU,0.129
23,GGGGGCCACAGCAGAAGCGUUGACGUAGCGGCCCCUGUCAGAUUCUGGUGAAUCUGCGAAUUCUGCUGU,0.149
24,GGGGGCCACAGCAGAAGCGUUGACGUUGCGGCCCCUGUCAGAUUCUGGUGAAUCUGCGAAUUCUGCUGU,0.142
25,GGGGGCCACAGCAGAAGCGUUGACGUCGGGGCCCCUGUCAGAUUCUGGUGAAUCUGCGAAUUCUGCUGU,0.225
26,GGGGGCCACAGCAGAAGCGUUGACGUCGUGGCCCCUGUCAGAUUCUGGUGAAUCUGCGAAUUCUGCUGU,0.07

row,Variant,self-cleavage
1,GGGGGCCACAGCAGAAGCGUUGACGUCGCGGACCCUGUCAGAUUCUGGUGAAUCUGCGAAUUCUGCUGU,0.117
2,GGGGGCCACAGCAGAAGCGUUGACGUCGCGGGCCCUGUCAGAUUCUGGUGAAUCUGCGAAUUCUGCUGU,0.139
3,GGGGGCCACAGCAGAAGCGUUGACGUCGCGGCACCUGUCAGAUUCUGGUGAAUCUGCGAAUUCUGCUGU,0.195
4,GGGGGCCACAGCAGAAGCGUUGACGUCGCGGCUCCUGUCAGAUUCUGGUGAAUCUGCGAAUUCUGCUGU,0.264
5,GGGGGCCACAGCAGAAGCGUUGACGUCGCGGCCACUGUCAGAUUCUGGUGAAUCUGCGAAUUCUGCUGU,0.194
6,GGGGGCCACAGCAGAAGCGUUGACGUCGCGGCCGCUGUCAGAUUCUGGUGAAUCUGCGAAUUCUGCUGU,0.177
7,GGGGGCCACAGCAGAAGCGUUGACGUCGCGGCCCAUGUCAGAUUCUGGUGAAUCUGCGAAUUCUGCUGU,0.169
8,GGGGGCCACAGCAGAAGCGUUGACGUCGCGGCCCGUGUCAGAUUCUGGUGAAUCUGCGAAUUCUGCUGU,0.231
9,GGGGGCCACAGCAGAAGCGUUGACGUCGCGGCCCUUGUCAGAUUCUGGUGAAUCUGCGAAUUCUGCUGU,0.208
10,GGGGGCCACAGCAGAAGCGUUGACGUCGCGGCCCCUGUAAGAUUCUGGUGAAUCUGCGAAUUCUGCUGU,0.0996
11,GGGGGCCACAGCAGAAGCGUUGACGUCGCGGCCCCUGUGAGAUUCUGGUGAAUCUGCGAAUUCUGCUGU,0.0932
12,GGGGGCCACAGCAGAAGCGUUGACGUCGCGGCCCCUGUUAGAUUCUGGUGAAUCUGCGAAUUCUGCUGU,0.236
13,GGGGGCCACAGCAGAAGCGUUGACGUCGCGGCCCCUGUCAGAUUAUGGUGAAUCUGCGAAUUCUGCUGU,0.223
14,GGGGGCCACAGCAGAAGCGUUGACGUCGCGGCCCCUGUCAGAUUGUGGUGAAUCUGCGAAUUCUGCUGU,0.229
15,GGGGGCCACAGCAGAAGCGUUGACGUCGCGGCCCCUGUCAGAUUCUGGUGAAUAUGCGAAUUCUGCUGU,0.121
16,GGGGGCCACAGCAGAAGCGUUGACGUCGCGGCCCCUGUCAGAUUCUGGUGAAUGUGCGAAUUCUGCUGU,0.125
17,GGGGGCCACAGCAGAAGCGUUGACGUCGCGGCCCCUGUCAGAUUCUGGUGAAUUUGCGAAUUCUGCUGU,0.204
18,GGGGGCCACAGCAGAAGCGUUGACGUCGCGGCCCCUGUCAGAUUCUGGUGAAUCUGGGAAUUCUGCUGU,0.205
19,GGGGGCCACAGCAGAAGCGUUGACGUCGCGGCCCCUGUCAGAUUCUGGUGAAUCUGCGAAUUAUGCUGU,0.141
20,GGGGGCCACAGCAGAAGCGUUGACGUCGCGGCCCCUGUCAGAUUCUGGUGAAUCUGCGAAUUGUGCUGU,0.209
21,GGGGGCCACAGCAGAAGCGUUGACGUCGCGGCCCCUGUCAGAUUCUGGUGAAUCUGCGAAUUUUGCUGU,0.123
22,GGGGGCCACAGCAGAAGCGUUGACGUCGCGGCCCCUGUCAGAUUCUGGUGAAUCUGCGAAUUCUGAUGU,0.135
23,GGGGGCCACAGCAGAAGCGUUGACGUCGCGGCCCCUGUCAGAUUCUGGUGAAUCUGCGAAUUCUGGUGU,0.182
24,GGGGGCCACAGCAGAAGCGUUGACAUCGCGGCCCCUGUCAGAUUCUGGUGAAUCUGCGAAUUCUGCUGU,0.177
25,GGGGGCCACAGCAGAAGCGUUGACCUCGCGGCCCCUGUCAGAUUCUGGUGAAUCUGCGAAUUCUGCUGU,0.248
26,GGGGGCCACAGCAGAAGCGUUGACUUCGCGGCCCCUGUCAGAUUCUGGUGAAUCUGCGAAUUCUGCUGU,0.146

row,Variant,self-cleavage
1,GGGGGCCACAGCAGAAGCGUUGACGUCCCGGCCCCUGUCAGAUUCUGGUGAAUCUGCGAAUUCUGCUGU,0.18
2,GGGGGCCACAGCAGAAGCGUUGACGUCUCGGCCCCUGUCAGAUUCUGGUGAAUCUGCGAAUUCUGCUGU,0.182
3,GGGGGCCACAGCAGAAGCGUUGACGUCGCAGCCCCUGUCAGAUUCUGGUGAAUCUGCGAAUUCUGCUGU,0.219
4,GGGGGCCACAGCAGAAGCGUUGACGUCGCCGCCCCUGUCAGAUUCUGGUGAAUCUGCGAAUUCUGCUGU,0.166
5,GGGGGCCACAGCAGAAGCGUUGACGUCGCUGCCCCUGUCAGAUUCUGGUGAAUCUGCGAAUUCUGCUGU,0.162
6,GGGGGCCACAGCAGAAGCGUUGACGUCGCGUCCCCUGUCAGAUUCUGGUGAAUCUGCGAAUUCUGCUGU,0.178
7,GGGGGCCACAGCAGAAGCGUUGACGUCGCGGCCCCUUUCAGAUUCUGGUGAAUCUGCGAAUUCUGCUGU,0.527
8,GGGGGCCACAGCAGAAGCGUUGACGUCGCGGCCCCUGUCAAAUUCUGGUGAAUCUGCGAAUUCUGCUGU,0.147
9,GGGGGCCACAGCAGAAGCGUUGACGUCGCGGCCCCUGUCACAUUCUGGUGAAUCUGCGAAUUCUGCUGU,0.105
10,GGGGGCCACAGCAGAAGCGUUGACGUCGCGGCCCCUGUCAUAUUCUGGUGAAUCUGCGAAUUCUGCUGU,0.178
11,GGGGGCCACAGCAGAAGCGUUGACGUCGCGGCCCCUGUCAGAUUCUAGUGAAUCUGCGAAUUCUGCUGU,0.149
12,GGGGGCCACAGCAGAAGCGUUGACGUCGCGGCCCCUGUCAGAUUCUCGUGAAUCUGCGAAUUCUGCUGU,0.122
13,GGGGGCCACAGCAGAAGCGUUGACGUCGCGGCCCCUGUCAGAUUCUUGUGAAUCUGCGAAUUCUGCUGU,0.133
14,GGGGGCCACAGCAGAAGCGUUGACGUCGCGGCCCCUGUCAGAUUCUGAUGAAUCUGCGAAUUCUGCUGU,0.226
15,GGGGGCCACAGCAGAAGCGUUGACGUCGCGGCCCCUGUCAGAUUCUGUUGAAUCUGCGAAUUCUGCUGU,0.161
16,GGGGGCCACAGCAGAAGCGUUGACGUCGCGGCCCCUGUCAGAUUCUGGUCAAUCUGCGAAUUCUGCUGU,0.127
17,GGGGGCCACAGCAGAAGCGUUGACGUCGCGGCCCCUGUCAGAUUCUGGUUAAUCUGCGAAUUCUGCUGU,0.145
18,GGGGGCCACAGCAGAAGCGUUGACGUCGCGGCCCCUGUCAGAUUCUGGUGAAUCUUCGAAUUCUGCUGU,0.202
19,GGGGGCCACAGCAGAAGCGUUGACGUCGCGGCCCCUGUCAGAUUCUGGUGAAUCUGCCAAUUCUGCUGU,0.161
20,GGGGGCCACAGCAGAAGCGUUGACGUCGCGGCCCCUGUCAGAUUCUGGUGAAUCUGCUAAUUCUGCUGU,0.202
21,GGGGGCCACAGCAGAAGCGUUGACGUCGCGGCCCCUGUCAGAUUCUGGUGAAUCUGCGAAUUCUACUGU,0.173
22,GGGGGCCACAGCAGAAGCGUUGACGUCGCGGCCCCUGUCAGAUUCUGGUGAAUCUGCGAAUUCUCCUGU,0.196
23,GGGGGCCACAGCAGAAGCGUUGACGUCGCGGCCCCUGUCAGAUUCUGGUGAAUCUGCGAAUUCUUCUGU,0.212
24,GGGGGCCACAGCAGAAGCGUUGACGUCGCGGCCCCUGUCAGAUUCUGGUGAAUCUGCGAAUUCUGCUUU,0.197
25,GGGGGCCACAGCAGAAGCGUUGACGGCGCGGCCCCUGUCAGAUUCUGGUGAAUCUGCGAAUUCUGCUGU,0.163
26,GGGGGCCACAGCAGAAGCGUUGACGUCGCGGCCCCAGUCAGAUUCUGGUGAAUCUGCGAAUUCUGCUGU,0.152

# — the RNAGym collection of RNA variant scans (doi:10.7554/elife.80360)
